T1: rat PAI-1 (rat) (UniProt P20961)
T1 sequence: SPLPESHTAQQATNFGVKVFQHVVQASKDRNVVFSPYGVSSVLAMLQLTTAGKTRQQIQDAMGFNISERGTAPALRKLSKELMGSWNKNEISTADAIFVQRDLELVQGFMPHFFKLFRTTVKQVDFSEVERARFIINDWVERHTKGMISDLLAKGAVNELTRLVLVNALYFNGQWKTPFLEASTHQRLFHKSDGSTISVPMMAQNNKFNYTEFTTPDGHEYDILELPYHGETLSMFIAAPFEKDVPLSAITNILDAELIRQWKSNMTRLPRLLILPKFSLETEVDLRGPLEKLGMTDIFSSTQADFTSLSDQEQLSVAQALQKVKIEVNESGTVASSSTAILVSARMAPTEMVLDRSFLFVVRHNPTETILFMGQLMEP


Tests used:
[1] = biological target: active human PAI-1, recombinant, wild-type, non-glycosylated (E. coli) (human) (UniProt P05121); experiment: cell-based or functional assay
rat PAI-1 (rat) = biological target: T1, rat PAI-1 (rat); experiment: cell-based or functional assay
[2] = biological target: Antibody 16 IgG1, not germlined; experiment: competition binding assay: Antibody 16 IgG adsorbed to the plate, biotinylated active human PAI-1 plus a titration of the unlabelled competitor, streptavidin-Europium detection

Chain of active human PAI-1, recombinant, wild-type, non-glycosylated (E. coli) (human) (P05121 24-402): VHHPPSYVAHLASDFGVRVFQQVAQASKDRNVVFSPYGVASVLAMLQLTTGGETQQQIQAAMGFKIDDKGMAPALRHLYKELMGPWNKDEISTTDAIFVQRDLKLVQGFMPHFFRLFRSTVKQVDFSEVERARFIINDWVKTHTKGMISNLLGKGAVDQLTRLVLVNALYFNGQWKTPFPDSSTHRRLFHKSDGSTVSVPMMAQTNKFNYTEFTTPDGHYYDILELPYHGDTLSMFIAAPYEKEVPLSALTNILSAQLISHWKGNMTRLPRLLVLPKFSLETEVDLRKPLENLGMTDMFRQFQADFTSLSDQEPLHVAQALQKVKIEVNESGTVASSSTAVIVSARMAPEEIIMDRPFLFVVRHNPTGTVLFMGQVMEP

Binder | Chromogenic (IC50 in nM) human [1] | Chromogenic (IC50 in nM) rat (rat PAI-1 (rat)) | Chromogenic IC50 ratio rat/human (rat PAI-1 (rat)) | HT-1080 Exo PAI-1 (IC50 in nM) rat (rat PAI-1 (rat)) | IC50 in the rat chromogenic assay, fold higher than in the human assay (rat PAI-1 (rat)) | IC50 (read off the curve) [2]
Antibody 18 scFv (scFv, V domains shown, part only, linker not stated) VH: QVQLQQSGAEVKKPGSSVKVSCKASGGTFSSYAISWVRQAPGQGLEWMGGIIPTFGTANYAQKLQGRVTITADESTSTAYMELSGLRSEDTAVYYCAREKRQWLEGHFDYWGRGTPVTVSS VL: DIQMTQSPSFLSASIGDRVTITCRASEGIYHALAWYQQKPGKAPKLLIYRASSLASGAPSRFSGSGSGTDFTLTISSLQPDDFATYYCQQYSNYPLTFGGGTKLEIK | 1.3 nM | 238 nM | 190 fold | 37 nM | 180 fold | 
mouse PAI-1 (protein) ALPLRESHTAHQATDFGVKVFQQVVQASKDRNVVFSPYGVSSVLAMLQMTTAGKTRRQIQDAMGFKVNEKGTAHALRQLSKELMGPWNKNEISTADAIFVQRDLELVQGFMPHFFKLFQTMVKQVDFSEVERARFIINDWVERHTKGMINDLLAKGAVDELTRLVLVNALYFSGQWKTPFLEASTHQRLFHKSDGSTVSVPMMAQSNKFNYTEFTTPDGLEYDVVELPYQGDTLSMFIAAPFEKDVHLSALTNILDAELIRQWKGNMTRLPRLLILPKFSLETEVDLRGPLEKLGMPDMFSATLADFTSLSDQEQLSVAQALQKVRIEVNESGTVASSSTAFVISARMAPTEMVIDRSFLFVVRHNPTETILFMGQVMES |  |  |  |  |  | 6 nM
